# Test results from patent US20090203610A1, “METHODS OF TREATING OBESITY OR DIABETES USING NT-4/5” (RINAT NEUROSCIENCE CORPORATION, priority 2004, published 2009).
# Tests used:
# db/db mice [1] = assay: Body weight, daily then intermittent s.c. dosing to day 29 in db/db mice (Example 2); type: in vivo
# Procedure: Female db/db mice (12 weeks old) were divided into four groups and were subcutaneously injected with vehicle (PBS) or NT-4/5 at doses of 2 mg/kg, 5 mg/kg, or 10 mg/kg daily from day 0 to day 4, and then on day 8, day 11, day 15, day 18, day 22, day 25, and day 29. […] In addition, the body weights in NT-4/5 in all treated groups continued to be reduced during the treatment period.
# db/db mice [2] = assay: Body weight and food intake, daily s.c. dosing day 1 to 30 in db/db mice (Example 2); type: in vivo
# Procedure: Female db/db mice (12 weeks old) were divided into three groups and were subcutaneously injected with vehicle (PBS) or NT-4/5 at doses of 5 mg/kg, or 20 mg/kg daily from day 1 to day 30. […] Food intake was reduced to about 20% of the vehicle group level after 10 days of administration of NT-4/5 at 20 mg/kg and was maintained at that level until day 30. Food intake was returned to about the same level as the vehicle group about 12 days after stop of treatment.
# [3] = system: NONcNZO-10 polygenic obese mice; assay: Non-fasting blood triglyceride level in NONcNZO-10 mice (Example 4, Table 18); type: in vivo
# Text: Test animals: 40 male NONcNZO-10 polygenic obese mice obtained from Jackson Laboratory at 10 weeks of age weighing in the range of 26-32 g were used in this study.
# Administration of NT-4/5: NT-4/5 was produced in E. coli as descried in U.S. Pat. No. 6,184,360. The mice were divided into 6 groups of equivalent body weight and baseline blood glucose distribution (6-7 mice per group). […] A “paired-fed” control group received daily injection of vehicle, but were only fed with the same amount of food the 3 mg/kg group consumed the previous day. On the day when the treatment started (day 1), a baseline blood samples were collected for measuring glucose and triglyceride. Triglyceride level was measured on day 10. At the end of the study (day 12), a terminal blood sample was collected to determine glucose, triglyceride, electrolytes (Na, K, Cl), testoterone, corticosterone, thyroid hormone (total T4) and thyroid stimulating hormone (TSH) levels. Electrolytes, free testosterone, T4 and TSH levels of serum samples were measured by AniLytics (Gaithesburg, M.D) according to the standard protocols employed by the vendor. Other analytes were measured as described above. Body weight, food intake were monitored 5 days per week through out the entire study. Daily water intake was measured from day 5 through day 7.
# DIO mice = assay: Body weight and food intake in high fat diet-induced obese (DIO) mice (Example 5); type: in vivo; conditions: 2 and 10 mg/kg s.c.; P<0.001; dose dependent
# Procedure: Test animals: Mice with diet induced obesity (DIO) from Jackson Laboratory were used in this study. El-Haschimi, J. Clin. Invest. 105:1827-1832 (2000); Steppan, Nature 409:307-312 (2001). 23 male C57BL/6J mice were weaned at 4 weeks of age. Immediately after weaning they were put on about 58% high fat diet ([…], Research Diet) through out the study. The DIO mice at 13 weeks of age weighing in the range of 28-40 g were used in this study. Older mice at 22-24 weeks of age were also used.
# Administration of NT-4/5: NT-4/5 used in this study was obtained from Genentech. The mice were divided into 3 groups of equivalent body weight and baseline blood glucose distribution (7-8 mice per group). Each group received from day 1 to day 5, from day 8 to day 12, from day 15 to 16 a daily subcutaneous dose of either vehicle, 2 mg/kg or 10 mg/kg of NT-4/5, respectively. Five days prior to the treatment started (day −5), a baseline blood samples were collected for measuring glucose and triglyceride. Subsequent to the treatment started (day 1), blood glucose and triglyceride were measured once a week. Body weight, food intake were monitored 5 days per week through out the entire study. […] They were fasted overnight (for 16 hours) before fasting glucose levels were measured and the oral glucose tolerance test was conducted with a load of 2 grams of glucose/kg of body weight.
# human TrkA = biological target: T1, human TrkA (Homo sapiens, UniProt P04629); assay: Receptor tyrosine phosphorylation in trkA expressing cell line; type: cell-based
# T1 construct: expressed in transfected cells
# Text: (§1) Assays of TrkB specific activation by pegylated NT-4/5: Stable cell lines expressing human TrkA, TrkB or TrkC were used to determine the functional activity, i.e. receptor phosphorylation, of NT-4/5 and pegylated NT-4/5 as previously described (Sadick et al. Experimental Cell Research 234: 354-361, 1997).
# as §1, with “and different forms of” for “and”
# human TrkC = biological target: T2, human TrkC (Homo sapiens, UniProt Q16288); assay: Receptor tyrosine phosphorylation in trkC expressing cell line; type: cell-based
# T2 construct: expressed in transfected cells
# Text: as §1
# as §1, with “and different forms of” for “and”
# [4] = Serum half life after single subcutaneous dose in db/db mice (Example 7); type: in vivo; conditions: single subcutaneous dose of 4 mg/kg in db/db mice; estimated
# Text: In addition, pegylated NT-4/5 has extended half life in vivo.
# Sprague-Dawley rats = assay: Heat/thermal hyperalgesia, latency for foot withdrawal (Example 13); type: in vivo
# Procedure: To test whether NT-4/5 elicits pain in animals after NT-4/5 administration, a heat/thermal hyperalgesia animal model was used for testing. […] Then the latency for foot withdrawal in response to a constant radiant heat source was measured. See, Hargreaves et al., Neurology 48:501-505 (1997); Shu et al., Pain 80:463-470 (1999).
# T1 sequence (P04629 33-796): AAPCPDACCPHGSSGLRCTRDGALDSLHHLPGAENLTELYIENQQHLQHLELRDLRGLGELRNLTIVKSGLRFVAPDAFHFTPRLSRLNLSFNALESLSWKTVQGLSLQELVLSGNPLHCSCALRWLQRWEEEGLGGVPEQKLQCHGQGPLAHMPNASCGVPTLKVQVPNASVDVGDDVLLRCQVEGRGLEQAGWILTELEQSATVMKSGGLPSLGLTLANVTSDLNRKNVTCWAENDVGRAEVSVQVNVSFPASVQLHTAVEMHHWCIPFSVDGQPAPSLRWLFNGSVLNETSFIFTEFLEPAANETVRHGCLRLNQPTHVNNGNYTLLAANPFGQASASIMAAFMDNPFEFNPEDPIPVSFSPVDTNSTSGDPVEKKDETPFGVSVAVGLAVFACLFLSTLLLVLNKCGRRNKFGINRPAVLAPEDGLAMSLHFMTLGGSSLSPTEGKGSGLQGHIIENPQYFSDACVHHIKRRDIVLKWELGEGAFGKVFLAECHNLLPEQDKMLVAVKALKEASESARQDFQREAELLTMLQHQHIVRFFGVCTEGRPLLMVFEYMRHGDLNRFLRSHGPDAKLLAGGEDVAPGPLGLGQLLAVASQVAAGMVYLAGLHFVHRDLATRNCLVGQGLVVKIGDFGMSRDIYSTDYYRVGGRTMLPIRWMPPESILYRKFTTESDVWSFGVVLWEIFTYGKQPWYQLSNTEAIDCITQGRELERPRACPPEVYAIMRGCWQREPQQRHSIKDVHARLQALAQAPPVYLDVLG
# T2 sequence (Q16288 32-839): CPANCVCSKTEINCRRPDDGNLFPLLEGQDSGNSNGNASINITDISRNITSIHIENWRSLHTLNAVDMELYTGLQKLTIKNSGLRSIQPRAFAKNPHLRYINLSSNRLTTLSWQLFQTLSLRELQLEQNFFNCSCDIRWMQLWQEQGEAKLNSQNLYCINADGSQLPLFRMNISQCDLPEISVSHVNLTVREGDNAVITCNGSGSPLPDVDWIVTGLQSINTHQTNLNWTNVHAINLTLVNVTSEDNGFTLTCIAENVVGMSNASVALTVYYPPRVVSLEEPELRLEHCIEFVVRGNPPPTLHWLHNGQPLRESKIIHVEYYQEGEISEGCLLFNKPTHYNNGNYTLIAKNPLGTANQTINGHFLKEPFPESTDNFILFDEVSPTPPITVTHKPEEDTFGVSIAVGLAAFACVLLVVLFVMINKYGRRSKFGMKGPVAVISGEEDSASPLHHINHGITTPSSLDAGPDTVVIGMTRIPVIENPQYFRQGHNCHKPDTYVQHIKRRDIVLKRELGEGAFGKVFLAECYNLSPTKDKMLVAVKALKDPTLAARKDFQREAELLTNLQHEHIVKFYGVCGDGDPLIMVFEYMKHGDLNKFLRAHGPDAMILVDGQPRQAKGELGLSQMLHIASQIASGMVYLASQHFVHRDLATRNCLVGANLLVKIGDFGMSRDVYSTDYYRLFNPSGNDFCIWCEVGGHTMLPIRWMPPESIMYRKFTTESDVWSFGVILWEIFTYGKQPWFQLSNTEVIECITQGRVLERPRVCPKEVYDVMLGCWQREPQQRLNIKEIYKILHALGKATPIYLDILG
molecule,measurement,setting,value
"NT-4/5: mature human neurotrophin-4/5 (SEQ ID NO:1), obtained from Genentech or produced in E. coli (protein, listed as Homo sapiens) GVSETAPASRRGELAVCDAVSGWVTDRRTAVDLRGREVEVLGEVPAAGGSPLRQYFFETRCKADNAEEGGPGAGGGGCRGVDRRHWVSECKAKQSYVRALTADAQGRVGWRWIRIDTACVCTLLSRTGRA",body weight,"db/db mice [1]; 2, 5 or 10 mg/kg s.c. daily day 0-4, then days 8, 11, 15, 18, 22, 25, 29",reduced body weight in a dose dependent manner
same,body weight reduction,"db/db mice [1]; day 31, 5 mg/kg and 10 mg/kg groups",about 20%
same,"food intake, % of the vehicle group level","db/db mice [2]; 20 mg/kg, after 10 days of administration, maintained until day 30",about 20%
same,body weight,db/db mice [2]; 5 or 20 mg/kg s.c. daily day 1 to 30,reduced body weight in a dose dependent manner
same,time after stop of treatment until food intake returned to vehicle group level,"db/db mice [2]; mouse, in vivo",about 12 days
same,non-fasting blood triglyceride levels,[3]; daily subcutaneous injection,significantly reduced
same,non-fasting blood triglyceride level,[3]; lowest dose 0.1 mg/kg/day s.c.,significantly reduced
same,body weight,DIO mice,significantly reduced
same,food intake,DIO mice,significantly reduced
same,receptor tyrosine phosphorylation of trkA-expressing cell line,human TrkA,did not increase receptor tyrosine phosphorylation
same,receptor tyrosine phosphorylation of trkC-expressing cell line,human TrkC,did not increase receptor tyrosine phosphorylation
same,serum half life,[4],41 to 52 min
same,pain,Sprague-Dawley rats; 2 mg/kg,did not cause pain
same,changes of latency for foot withdrawal in response to radiant heat,"Sprague-Dawley rats; 2 mg/kg s.c., 3, 5 and 24 hour after administration",No statistically significant changes
